Values belong to the binder of their own block, whether it stands above or below them.
Legend:
Assay in all cases: direct ELISA, biotinylated recombinant protein on streptavidin plates
[1] = biological target: T1, human recombinant IL-2Rβ (human, UniProt P14784 27-239, limits assumed)
T1 construct: Biotinylated and captured on streptavidin plates in the ELISA; also called IL-2Rb; IL2Rb
T1 sequence (looked up): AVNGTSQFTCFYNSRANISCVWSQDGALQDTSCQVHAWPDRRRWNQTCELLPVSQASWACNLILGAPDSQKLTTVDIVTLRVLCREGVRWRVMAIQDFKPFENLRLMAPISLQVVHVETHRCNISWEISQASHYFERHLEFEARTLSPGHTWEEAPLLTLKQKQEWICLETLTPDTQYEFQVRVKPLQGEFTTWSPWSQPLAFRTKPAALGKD

[2] = biological target: T2, human recombinant IL-2Rγ (human, UniProt P31785 23-262, limits assumed)
T2 construct: Biotinylated and captured on streptavidin plates in the ELISA; also called IL-2Rg; IL2Rg
T2 sequence (looked up): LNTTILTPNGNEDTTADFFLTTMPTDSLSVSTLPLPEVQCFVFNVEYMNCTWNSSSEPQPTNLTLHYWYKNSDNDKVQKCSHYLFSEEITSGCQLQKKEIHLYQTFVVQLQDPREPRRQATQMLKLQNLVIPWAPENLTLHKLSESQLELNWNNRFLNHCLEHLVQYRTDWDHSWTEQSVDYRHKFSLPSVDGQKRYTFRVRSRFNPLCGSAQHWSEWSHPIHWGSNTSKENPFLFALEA

[3] = biological target: T3, recombinant Human carcinoembryonic antigen (human, UniProt P06731 35-685, limits assumed)
T3 construct: Irrelevant control protein of the ELISA, biotinylated and captured on streptavidin plates; also called irrelevant protein; CEA
T3 sequence (looked up): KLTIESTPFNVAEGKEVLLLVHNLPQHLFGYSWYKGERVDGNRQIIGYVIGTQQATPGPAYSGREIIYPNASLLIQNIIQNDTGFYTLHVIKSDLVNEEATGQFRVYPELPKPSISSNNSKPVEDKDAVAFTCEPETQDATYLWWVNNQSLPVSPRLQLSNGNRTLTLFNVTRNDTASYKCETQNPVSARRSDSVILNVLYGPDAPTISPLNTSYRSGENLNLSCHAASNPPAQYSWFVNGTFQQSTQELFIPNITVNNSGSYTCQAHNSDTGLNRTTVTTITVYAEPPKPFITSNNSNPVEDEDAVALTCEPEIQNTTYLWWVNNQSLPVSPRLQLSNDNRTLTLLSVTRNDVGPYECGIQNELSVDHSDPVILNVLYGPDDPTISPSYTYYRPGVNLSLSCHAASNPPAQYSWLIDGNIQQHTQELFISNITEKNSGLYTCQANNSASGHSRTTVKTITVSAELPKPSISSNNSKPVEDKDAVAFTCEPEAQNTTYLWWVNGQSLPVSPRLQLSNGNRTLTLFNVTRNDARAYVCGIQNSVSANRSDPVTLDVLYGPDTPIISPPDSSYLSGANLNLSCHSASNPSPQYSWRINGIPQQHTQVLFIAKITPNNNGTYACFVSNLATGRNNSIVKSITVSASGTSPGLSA

[4] = biological target: T4, human recombinant HER2 (human, UniProt P04626 23-652)
T4 construct: Biotinylated and captured on streptavidin plates in the ELISA; also called human epidermal growth factor receptor 2

B1: AL4O30 (bispecific antibody, human IgG1, kappa, lambda, L234A L235A)
heavy: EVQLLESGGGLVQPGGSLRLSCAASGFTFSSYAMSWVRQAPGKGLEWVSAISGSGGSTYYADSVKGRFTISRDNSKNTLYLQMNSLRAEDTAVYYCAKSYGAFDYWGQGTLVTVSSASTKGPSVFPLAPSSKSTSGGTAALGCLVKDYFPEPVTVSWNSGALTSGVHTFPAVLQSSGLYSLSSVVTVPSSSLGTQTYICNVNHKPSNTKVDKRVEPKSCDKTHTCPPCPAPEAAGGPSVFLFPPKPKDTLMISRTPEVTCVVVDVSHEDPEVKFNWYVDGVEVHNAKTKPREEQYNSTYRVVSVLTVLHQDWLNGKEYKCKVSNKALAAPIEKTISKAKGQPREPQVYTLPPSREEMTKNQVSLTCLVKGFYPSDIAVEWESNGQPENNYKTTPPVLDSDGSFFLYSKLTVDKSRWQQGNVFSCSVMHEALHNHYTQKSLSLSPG
light 1: DIQMTQSPSSLSASVGDRVTITCRASQSIDEYLNWYQQKPGKAPKLLIYEASKLQSGVPSRFSGSGSGTDFTLTISSLQPEDFATYYCQQDGAMDTYATFGQGTKVEIKRTVAAPSVFIFPPSDEQLKSGTASVVCLLNNFYPREAKVQWKVDNALQSGNSQESVTEQDSKDSTYSLSSTLTLSKADYEKHKVYACEVTHQGLSSPVTKSFNRGEC
light 2: not shown
notes: κλ-body: common heavy chain, kappa anti-IL2Rβ light chain (AL4), lambda anti-MSLN light chain (O30); also called AL4O30/N
- binding result [1]: binds

B2: AL4O38 (bispecific antibody, human IgG1, kappa, lambda, L234A L235A)
heavy: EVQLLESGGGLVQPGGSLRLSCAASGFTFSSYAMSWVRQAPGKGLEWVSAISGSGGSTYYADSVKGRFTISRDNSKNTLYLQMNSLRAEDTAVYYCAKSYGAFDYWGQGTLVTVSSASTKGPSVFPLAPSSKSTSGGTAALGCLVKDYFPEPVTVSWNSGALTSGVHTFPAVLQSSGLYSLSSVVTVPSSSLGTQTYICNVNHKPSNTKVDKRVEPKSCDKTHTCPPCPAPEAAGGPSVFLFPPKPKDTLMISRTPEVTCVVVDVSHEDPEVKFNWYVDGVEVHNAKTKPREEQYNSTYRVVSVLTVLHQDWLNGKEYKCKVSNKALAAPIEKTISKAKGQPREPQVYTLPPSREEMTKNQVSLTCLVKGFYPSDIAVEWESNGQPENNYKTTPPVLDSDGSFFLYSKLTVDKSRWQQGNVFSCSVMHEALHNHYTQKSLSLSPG
light 1: B1 light 1
light 2: QPVLTQPASLSASPGASASLTCTLRSGINVRDYRIFWYQQKPGSPPQYLLRYKSASDKQQGSGVPSRFSGSKDASANAGILLISGLQSEDEADYYCMIWHHDSEGHAFVFGGGTKLTVLGQPKAAPSVTLFPPSSEELQANKATLVCLISDFYPGAVTVAWKADSSPVKAGVETTTPSKQSNNKYAASSYLSLTPEQWKSHRSYSCQVTHEGSTVEKTVAPTECS
notes: κλ-body: common heavy chain, kappa anti-IL2Rβ light chain (AL4), lambda anti-MSLN light chain (O38); also called AL4O38/N
- binding result [1]: binds

B3: AL4O41 (bispecific antibody, human IgG1, kappa, lambda, L234A L235A)
heavy: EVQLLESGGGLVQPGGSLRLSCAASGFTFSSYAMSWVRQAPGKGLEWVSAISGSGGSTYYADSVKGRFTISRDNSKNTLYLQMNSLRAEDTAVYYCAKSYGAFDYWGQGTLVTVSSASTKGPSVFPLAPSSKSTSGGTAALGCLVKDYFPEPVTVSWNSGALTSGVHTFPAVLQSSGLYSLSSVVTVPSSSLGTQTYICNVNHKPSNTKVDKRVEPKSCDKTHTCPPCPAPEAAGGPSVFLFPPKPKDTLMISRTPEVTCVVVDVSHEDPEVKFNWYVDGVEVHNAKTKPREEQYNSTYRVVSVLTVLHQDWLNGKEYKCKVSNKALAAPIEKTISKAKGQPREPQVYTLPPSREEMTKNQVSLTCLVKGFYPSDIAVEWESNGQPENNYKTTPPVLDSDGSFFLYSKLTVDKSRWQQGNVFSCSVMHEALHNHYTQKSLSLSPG
light 1: B1 light 1
light 2: SYVLTQPPSVSVAPGKTARITCGGNKIGHRAVHWYQQKPGQAPVLVIYYTYERPSGIPERFSGSNSGNTATLTISRVEAGDEADYYCQVWDWYSEGGVVFGGGTKLTVLGQPKAAPSVTLFPPSSEELQANKATLVCLISDFYPGAVTVAWKADSSPVKAGVETTTPSKQSNNKYAASSYLSLTPEQWKSHRSYSCQVTHEGSTVEKTVAPTECS
notes: κλ-body: common heavy chain, kappa anti-IL2Rβ light chain (AL4), lambda anti-MSLN light chain (O41); also called AL4O41/N
- binding result [1]: binds

B4: AL4O35 (bispecific antibody, human IgG1, kappa, lambda, L234A L235A)
heavy: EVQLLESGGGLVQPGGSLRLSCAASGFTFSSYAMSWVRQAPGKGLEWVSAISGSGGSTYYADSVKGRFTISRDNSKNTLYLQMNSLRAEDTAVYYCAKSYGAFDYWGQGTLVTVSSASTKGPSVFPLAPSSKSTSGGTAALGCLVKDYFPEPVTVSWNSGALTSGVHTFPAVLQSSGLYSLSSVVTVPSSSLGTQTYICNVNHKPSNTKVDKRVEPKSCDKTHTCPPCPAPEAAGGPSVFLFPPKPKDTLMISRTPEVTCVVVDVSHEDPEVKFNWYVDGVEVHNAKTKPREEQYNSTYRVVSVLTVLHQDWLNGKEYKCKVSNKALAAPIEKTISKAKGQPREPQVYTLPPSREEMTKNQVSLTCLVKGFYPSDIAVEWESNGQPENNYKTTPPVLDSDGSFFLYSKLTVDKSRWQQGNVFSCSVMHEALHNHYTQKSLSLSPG
light 1: B1 light 1
light 2: QPVLTQPVSLSASPGASVSLTCTLRSDIRVRDYRIFWYQQKPGSPPQYLLRYKTDSDKQQGSGVPSRFSGSKDASANAGILLISGLQSEDEADYYCMIWHRTTGTSLVFGGGTKLTVLGQPKAAPSVTLFPPSSEELQANKATLVCLISDFYPGAVTVAWKADSSPVKAGVETTTPSKQSNNKYAASSYLSLTPEQWKSHRSYSCQVTHEGSTVEKTVAPTECS
notes: κλ-body: common heavy chain, kappa anti-IL2Rβ light chain (AL4), lambda anti-MSLN light chain (O35); also called AL4O35/N
- binding result [1]: binds

B9: AL1N2-28 (bispecific antibody, human IgG1, kappa, lambda, L234A L235A)
heavy: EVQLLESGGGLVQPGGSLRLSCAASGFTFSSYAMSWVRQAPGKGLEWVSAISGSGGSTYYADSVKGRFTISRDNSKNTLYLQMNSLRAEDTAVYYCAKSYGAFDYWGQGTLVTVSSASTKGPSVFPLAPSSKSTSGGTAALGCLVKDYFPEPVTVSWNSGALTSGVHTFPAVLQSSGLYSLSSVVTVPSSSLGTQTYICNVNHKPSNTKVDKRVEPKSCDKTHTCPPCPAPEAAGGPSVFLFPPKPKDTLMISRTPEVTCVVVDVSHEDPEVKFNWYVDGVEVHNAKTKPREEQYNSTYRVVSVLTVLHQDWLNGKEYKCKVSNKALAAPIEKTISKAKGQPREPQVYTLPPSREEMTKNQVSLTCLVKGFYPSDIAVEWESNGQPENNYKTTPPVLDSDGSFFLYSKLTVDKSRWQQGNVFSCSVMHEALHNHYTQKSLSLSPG
light 1: not shown
light 2: SYVLTQPPSVSVAPGKTARITCGGNTIGSTVVHWYQQKPGQAPVLVIYFDDARPSGIPERFSGSNSGNTATLTISRVEAGDEADYYCQVWDSFGLSLAPVFGGGTKLTVLGQPKAAPSVTLFPPSSEELQANKATLVCLISDFYPGAVTVAWKADSSPVKAGVETTTPSKQSNNKYAASSYLSLTPEQWKSHRSYSCQVTHEGSTVEKTVAPTECS
notes: κλ-body: common heavy chain, kappa anti-IL2Rβ light chain (AL1), lambda anti-HER2 light chain (N2-28); also called AL1N2-28/N
- binding result [4]: binds
- binding result [1]: binds

B10: AL2N2-28 (bispecific antibody, human IgG1, kappa, lambda, L234A L235A)
heavy: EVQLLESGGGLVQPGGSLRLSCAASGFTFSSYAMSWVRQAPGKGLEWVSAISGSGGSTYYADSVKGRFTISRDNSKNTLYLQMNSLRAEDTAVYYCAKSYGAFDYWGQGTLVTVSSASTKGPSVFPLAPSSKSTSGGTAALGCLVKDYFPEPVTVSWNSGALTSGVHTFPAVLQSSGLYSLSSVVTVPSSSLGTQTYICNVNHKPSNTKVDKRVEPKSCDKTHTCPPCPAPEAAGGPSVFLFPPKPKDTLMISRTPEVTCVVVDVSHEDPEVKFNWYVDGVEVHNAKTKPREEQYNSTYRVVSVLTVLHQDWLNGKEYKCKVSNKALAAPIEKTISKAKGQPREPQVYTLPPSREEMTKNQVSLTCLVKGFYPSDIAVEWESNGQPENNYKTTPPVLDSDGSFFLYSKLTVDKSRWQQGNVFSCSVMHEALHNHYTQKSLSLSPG
light 1: not shown
light 2: B9 light 2
notes: κλ-body: common heavy chain, kappa anti-IL2Rβ light chain (AL2), lambda anti-HER2 light chain (N2-28); also called AL2N2-28/N
- binding result [4]: binds
- binding result [1]: binds

Other lines, results leading:

- binding result [2]: binds
- binding result [3]: no binding
- binding result [1]: binds
B5: P1A3×P2C4 (bispecific antibody, V domains shown)
VH 1: QVQLQQWGAGLLKPSETLSLTCAVYGGSFSGYYWSWIRQPPGKGLEWIGEINHSGSTNYNPSLKSRATISVDTSKNQFSLKLSSVTAADTAVYYCATSPGGYSGGYFQHWGQGTLVTVSS
VL 1: not shown
VH 2: EVQLVQSGAEVKKPGSSVKVSCKASGYTFTNYYMHWVRQAPGQGLEWMGAIMPSRGGTSYPQKFQGRVTMTGDTSTSTVYMELSSLRSEDTAVYYCARGEYYYDSSGYYYWGQGTLVTVSS
VL 2: QSALTQPASVSGSPGQSIAISCTGTSSDIGHYDFVSWYQQHPGTAPKLIIYDINNRPSGISNRFSGSKSDNMASLTISGLQPEDEADYYCSAYTSSDTLVFGGGTKLT
notes: anti-IL-2Rβ (P2C4) in the knob arm; also called anti-IL-2Rβ×anti-IL-2Rγ bsAb; IL-2Rβ×IL-2Rγ KiH bsAb

- binding result [4]: binds
- binding result [2]: binds
B6: AM9N2-19 (bispecific antibody, human IgG1, kappa, lambda, L234A L235A)
heavy: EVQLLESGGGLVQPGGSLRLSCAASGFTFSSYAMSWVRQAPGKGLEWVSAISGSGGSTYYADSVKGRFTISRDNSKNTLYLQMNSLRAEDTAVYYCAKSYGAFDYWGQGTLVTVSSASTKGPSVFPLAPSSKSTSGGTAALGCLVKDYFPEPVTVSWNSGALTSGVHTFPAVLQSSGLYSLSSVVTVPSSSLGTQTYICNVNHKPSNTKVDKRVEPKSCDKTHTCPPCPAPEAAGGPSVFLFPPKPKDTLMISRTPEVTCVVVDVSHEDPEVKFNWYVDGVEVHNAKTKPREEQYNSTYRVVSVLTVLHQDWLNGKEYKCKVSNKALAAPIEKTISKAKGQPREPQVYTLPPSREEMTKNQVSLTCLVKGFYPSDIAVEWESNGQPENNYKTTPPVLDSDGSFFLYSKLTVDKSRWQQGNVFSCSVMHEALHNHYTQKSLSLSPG
light 1: not shown
light 2: QSVLTQPPSVSGAPGQRVTISCTGSSSNIENTHTVHWYQQLPGTAPKLLIYDASIRPSGVPDRFSGSKSGTSASLAITGLQAEDEADYYCQSYDWLRGAQVFGGGTKLTVLGQPKAAPSVTLFPPSSEELQANKATLVCLISDFYPGAVTVAWKADSSPVKAGVETTTPSKQSNNKYAASSYLSLTPEQWKSHRSYSCQVTHEGSTVEKTVAPTECS
notes: κλ-body: common heavy chain, kappa anti-IL2Rγ light chain (AM9), lambda anti-HER2 light chain (N2-19); also called AM9N2-19/N

- binding result [4]: binds
- binding result [2]: binds
B7: AM10N2-19 (bispecific antibody, human IgG1, kappa, lambda, L234A L235A)
heavy: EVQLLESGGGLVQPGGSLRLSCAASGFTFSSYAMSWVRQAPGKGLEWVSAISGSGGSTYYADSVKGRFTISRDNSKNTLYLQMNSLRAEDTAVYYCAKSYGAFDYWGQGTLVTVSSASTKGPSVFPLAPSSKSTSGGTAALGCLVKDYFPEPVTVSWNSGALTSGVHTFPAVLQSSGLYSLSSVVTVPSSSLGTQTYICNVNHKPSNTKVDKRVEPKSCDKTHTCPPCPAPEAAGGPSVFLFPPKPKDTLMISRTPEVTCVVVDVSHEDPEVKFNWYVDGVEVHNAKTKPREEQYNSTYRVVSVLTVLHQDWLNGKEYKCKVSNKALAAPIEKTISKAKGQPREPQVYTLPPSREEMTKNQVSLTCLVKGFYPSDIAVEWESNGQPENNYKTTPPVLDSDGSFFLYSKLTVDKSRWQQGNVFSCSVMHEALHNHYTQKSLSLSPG
light 1: not shown
light 2: B6 light 2
notes: κλ-body: common heavy chain, kappa anti-IL2Rγ light chain (AM10), lambda anti-HER2 light chain (N2-19); also called AM10N2-19/N

- binding result [4]: binds
- binding result [2]: binds
B8: AM11N2-19 (bispecific antibody, human IgG1, kappa, lambda, L234A L235A)
heavy: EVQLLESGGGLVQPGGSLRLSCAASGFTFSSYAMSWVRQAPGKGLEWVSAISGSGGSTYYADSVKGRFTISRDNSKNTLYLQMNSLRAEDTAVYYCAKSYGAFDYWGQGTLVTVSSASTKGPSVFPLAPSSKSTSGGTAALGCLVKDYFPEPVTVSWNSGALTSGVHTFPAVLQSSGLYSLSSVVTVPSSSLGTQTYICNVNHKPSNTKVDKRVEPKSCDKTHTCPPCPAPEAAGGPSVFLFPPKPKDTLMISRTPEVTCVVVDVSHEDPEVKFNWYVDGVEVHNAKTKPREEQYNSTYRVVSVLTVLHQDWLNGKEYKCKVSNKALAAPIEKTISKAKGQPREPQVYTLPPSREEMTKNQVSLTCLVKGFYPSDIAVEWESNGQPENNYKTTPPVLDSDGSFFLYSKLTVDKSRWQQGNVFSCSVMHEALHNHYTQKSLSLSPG
light 1: EIVLTQSPGTLSLSPGERATLSCRASQNVNHNFLTWYQQKPGQAPRLLIYSASARATGIPDRFSGSGSGTDFTLTISRLEPEDFAVYYCQQFNYAPLTFGQGTKVEIKRTVAAPSVFIFPPSDEQLKSGTASVVCLLNNFYPREAKVQWKVDNALQSGNSQESVTEQDSKDSTYSLSSTLTLSKADYEKHKVYACEVTHQGLSSPVTKSFNRGEC
light 2: B6 light 2
notes: κλ-body: common heavy chain, kappa anti-IL2Rγ light chain (AM11), lambda anti-HER2 light chain (N2-19); also called AM11N2-19/N

- binding result [4]: binds
- binding result [1]: binds
B11: AL5N2-28 (bispecific antibody, human IgG1, kappa, lambda, L234A L235A)
heavy: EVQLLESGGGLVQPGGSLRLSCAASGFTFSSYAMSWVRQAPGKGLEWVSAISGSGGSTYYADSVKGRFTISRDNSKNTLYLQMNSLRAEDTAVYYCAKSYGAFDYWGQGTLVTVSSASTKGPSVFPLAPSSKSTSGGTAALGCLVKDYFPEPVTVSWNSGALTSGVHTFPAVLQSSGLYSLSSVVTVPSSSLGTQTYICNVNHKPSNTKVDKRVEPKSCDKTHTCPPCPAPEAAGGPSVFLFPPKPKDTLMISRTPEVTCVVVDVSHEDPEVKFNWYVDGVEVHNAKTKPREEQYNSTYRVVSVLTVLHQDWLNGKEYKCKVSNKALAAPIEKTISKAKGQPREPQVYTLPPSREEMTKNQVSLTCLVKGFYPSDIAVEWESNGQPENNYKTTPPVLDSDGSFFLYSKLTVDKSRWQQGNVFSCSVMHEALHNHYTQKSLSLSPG
light 1: not shown
light 2: B9 light 2
notes: κλ-body: common heavy chain, kappa anti-IL2Rβ light chain (AL5), lambda anti-HER2 light chain (N2-28); also called AL5N2-28/N

- binding result [4]: binds
- binding result [1]: binds
B12: AL4N2-28 (bispecific antibody, human IgG1, kappa, lambda, L234A L235A)
heavy: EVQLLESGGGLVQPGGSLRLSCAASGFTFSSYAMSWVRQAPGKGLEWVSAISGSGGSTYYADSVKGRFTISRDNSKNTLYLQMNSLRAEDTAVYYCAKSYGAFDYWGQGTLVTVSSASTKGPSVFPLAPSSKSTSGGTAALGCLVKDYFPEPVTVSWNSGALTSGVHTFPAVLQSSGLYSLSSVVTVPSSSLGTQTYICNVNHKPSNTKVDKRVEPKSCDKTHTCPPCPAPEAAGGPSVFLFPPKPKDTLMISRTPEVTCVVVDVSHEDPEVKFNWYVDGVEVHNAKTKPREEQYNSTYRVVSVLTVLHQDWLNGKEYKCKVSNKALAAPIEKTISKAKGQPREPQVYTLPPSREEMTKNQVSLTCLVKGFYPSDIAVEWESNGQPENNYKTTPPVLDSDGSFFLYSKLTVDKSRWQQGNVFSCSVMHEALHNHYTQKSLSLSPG
light 1: B1 light 1
light 2: B9 light 2
notes: κλ-body: common heavy chain, kappa anti-IL2Rβ light chain (AL4), lambda anti-HER2 light chain (N2-28); also called AL4N2-28/N

- binding result [4]: binds
- binding result [1]: binds
B13: AL3N2-28 (bispecific antibody, human IgG1, kappa, lambda, L234A L235A)
heavy: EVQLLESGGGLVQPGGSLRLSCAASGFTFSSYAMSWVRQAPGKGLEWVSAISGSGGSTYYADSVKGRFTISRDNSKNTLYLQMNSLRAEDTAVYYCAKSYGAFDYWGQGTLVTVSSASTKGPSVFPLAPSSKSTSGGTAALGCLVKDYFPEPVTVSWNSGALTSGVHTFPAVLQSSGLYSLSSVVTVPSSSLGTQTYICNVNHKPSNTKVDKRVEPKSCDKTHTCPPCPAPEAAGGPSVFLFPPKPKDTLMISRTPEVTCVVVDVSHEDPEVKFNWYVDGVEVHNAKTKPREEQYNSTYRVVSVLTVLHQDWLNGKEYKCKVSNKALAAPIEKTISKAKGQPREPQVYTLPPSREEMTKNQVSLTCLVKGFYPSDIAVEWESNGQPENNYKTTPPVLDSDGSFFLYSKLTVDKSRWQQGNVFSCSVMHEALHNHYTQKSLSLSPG
light 1: not shown
light 2: B9 light 2
notes: κλ-body: common heavy chain, kappa anti-IL2Rβ light chain (AL3), lambda anti-HER2 light chain (N2-28); also called AL3N2-28/N
